The target of test [1] is T1, human G-CSF receptor on transfected mouse BaF3 cells (mBaF3/hG-CSFR) (human) (UniProt Q99062).
T1 sequence (looked up): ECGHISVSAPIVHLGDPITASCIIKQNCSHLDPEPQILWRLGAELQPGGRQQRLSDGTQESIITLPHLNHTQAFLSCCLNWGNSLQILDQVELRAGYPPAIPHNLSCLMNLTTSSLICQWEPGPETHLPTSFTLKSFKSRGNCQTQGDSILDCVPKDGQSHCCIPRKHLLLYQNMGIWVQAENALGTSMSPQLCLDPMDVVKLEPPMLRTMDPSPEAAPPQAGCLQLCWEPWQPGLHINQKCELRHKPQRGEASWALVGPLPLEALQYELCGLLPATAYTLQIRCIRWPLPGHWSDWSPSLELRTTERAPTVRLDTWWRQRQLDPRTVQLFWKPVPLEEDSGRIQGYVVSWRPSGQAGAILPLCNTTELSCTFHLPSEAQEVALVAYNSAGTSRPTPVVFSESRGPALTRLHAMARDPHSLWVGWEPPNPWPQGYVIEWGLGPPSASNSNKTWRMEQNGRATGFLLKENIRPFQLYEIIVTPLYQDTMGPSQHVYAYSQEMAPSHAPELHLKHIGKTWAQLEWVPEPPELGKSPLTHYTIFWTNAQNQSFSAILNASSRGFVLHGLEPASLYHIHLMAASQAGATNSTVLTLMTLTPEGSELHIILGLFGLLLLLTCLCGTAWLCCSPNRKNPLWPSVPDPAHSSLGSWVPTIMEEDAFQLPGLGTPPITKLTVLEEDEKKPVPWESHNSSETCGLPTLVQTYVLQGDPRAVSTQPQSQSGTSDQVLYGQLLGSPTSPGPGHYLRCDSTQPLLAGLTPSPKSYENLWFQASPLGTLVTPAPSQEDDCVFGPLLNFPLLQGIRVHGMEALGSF
As to the kind of experiment: cell-based or functional assay.

The target in test [2] is T2, chimeric Flt3/G-CSF receptor on transfected mouse Baf/3 cells (human) (UniProt P36888).
T2 sequence (looked up): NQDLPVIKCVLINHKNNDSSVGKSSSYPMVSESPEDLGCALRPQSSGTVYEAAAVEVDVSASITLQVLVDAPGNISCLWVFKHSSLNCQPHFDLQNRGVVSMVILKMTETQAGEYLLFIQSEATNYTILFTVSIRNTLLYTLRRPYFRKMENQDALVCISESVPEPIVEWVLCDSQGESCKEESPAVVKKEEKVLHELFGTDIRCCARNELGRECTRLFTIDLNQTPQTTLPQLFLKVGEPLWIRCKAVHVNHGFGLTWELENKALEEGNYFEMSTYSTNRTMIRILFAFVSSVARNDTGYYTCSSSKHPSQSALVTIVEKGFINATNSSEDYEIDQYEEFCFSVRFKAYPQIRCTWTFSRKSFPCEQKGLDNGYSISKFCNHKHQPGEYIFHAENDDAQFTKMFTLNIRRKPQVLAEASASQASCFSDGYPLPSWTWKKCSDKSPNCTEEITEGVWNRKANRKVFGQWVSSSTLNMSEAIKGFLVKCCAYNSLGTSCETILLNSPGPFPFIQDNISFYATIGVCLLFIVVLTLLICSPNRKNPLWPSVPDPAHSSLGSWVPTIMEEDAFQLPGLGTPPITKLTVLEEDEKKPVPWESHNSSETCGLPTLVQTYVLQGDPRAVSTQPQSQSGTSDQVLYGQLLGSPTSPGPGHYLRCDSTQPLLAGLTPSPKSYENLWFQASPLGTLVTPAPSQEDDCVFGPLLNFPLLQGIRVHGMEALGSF
As to the kind of experiment: cell-based or functional assay.

Bounds are passed on as bounds.

For “recombinant human G-CSF (from UniProt P09919 31-204) (ligand)”, in test [1], the Average EC50 (n = 9), BAF3/G-CSF cell proliferation ([3H]-thymidine) came out at 0.025 nM and the Average Rel. Potency, BAF3/G-CSF cell proliferation was found to be 1. In addition, in test [2], the Average EC50 (n = 12), BAF3/Flt cell proliferation ([3H]-thymidine) is over 200 nM.

B1: recombinant human flt3 ligand (ligand, UniProt P49771 27-185, looked up)
chain: TQDCSFQHSPISSDFAVKIRELSDYLLQDYPVTVASNLQDEELCGGLWRLVLAQRWMERLKTVAGSKMQGLLERVNTEIHFVTKCAFQPPPSCLRFVQTNISRLLQETSEQLVALKPWITRQNFSRCLELQCQPDSSTLPPPWSPRPLEATAPTAPQPP
In test [1], B1 showed an Average EC50 (n = 9), BAF3/G-CSF cell proliferation ([3H]-thymidine) of over 2 nM. In test [2], this molecule yielded an Average EC50 (n = 12), BAF3/Flt cell proliferation ([3H]-thymidine) of 0.03 nM and an Average Rel. Potency, BAF3/Flt cell proliferation of 1.

The values above are taken from US20060052291A1.
